# Experimental data published in the Human Domainome abundance scans (Beltran et al. 2025).
# ± gives the uncertainty stated by the source.
# B1: Double-stranded RNA-binding protein Staufen homolog 1, residues 183 to 249; numbered along this chain, O95793 (parent)
# chain: KSEISQVFEIALKRNLPVNFEVARESGPPHMKNFVTKVSVGEFVGEGEGKSKKISKKNAAIAVLEEL
# Variants of: B1
# Assay: abundance fitness (aPCA) (normalised: wild type 0, dead -1); higher = more abundant; growth selection in yeast, the domain comes from the species named
# Details: Homo sapiens
row,Variant,abundance fitness
1,KSEISQVFEIALKRNLPVNFEVARESGPPHMKNFVTKVSVGEFVGEGEGKSKKISKKNAAIAVLQEL [E65Q],-0.016 ± 0.059
2,KSEISQVFEIALKRNLPVNFEVARESGPPHMKNFVTKVSVGEFVGEGEGKSKKISKKNAAIAVLYEL [E65Y],-0.212 ± 0.082
3,KSEISQVFEIALKRNLPVNFEVARESGPPHMKNFVTKVSVGEFVGEGEGKSKKISKKNAAIAVLHEL [E65H],-0.051 ± 0.1
4,KSEISQVFEIALKRNLPVNFEVARESGPPHMKNFVTKVSVGEFVGEGEGKSKKISKKNAAIAVLAEL [E65A],-0.038 ± 0.042
5,KSEISQVFEIALKRNLPVNFEVARESGPPHMKNFVTKVSVGEFVGEGEGKSKKISKKNAAIAVLMEL [E65M],-0.336 ± 0.054
6,KSEISQVFEIALKRNLPVNFEVARESGPPHMKNFVTKVSVGEFVGEGEGKSKKISKKNAAIAVLDEL [E65D],-0.081 ± 0.069
7,KSEISQVFEIALKRNLPVNFEVARESGPPHMKNFVTKVSVGEFVGEGEGKSKKISKKNAAIAVLSEL [E65S],0.003 ± 0.048
8,KSEISQVFEIALKRNLPVNFEVARESGPPHMKNFVTKVSVGEFVGEGEGKSKKISKKNAAIAVLCEL [E65C],-0.348 ± 0.079
9,KSEISQVFEIALKRNLPVNFEVARESGPPHMKNFVTKVSVGEFVGEGEGKSKKISKKNAAIAVLWEL [E65W],-0.388 ± 0.065
10,KSEISQVFEIALKRNLPVNFEVARESGPPHMKNFVTKVSVGEFVGEGEGKSKKISKKNAAIAVLGEL [E65G],-0.079 ± 0.043
11,KSEISQVFEIALKRNLPVNFEVARESGPPHMKNFVTKVSVGEFVGEGEGKSKKISKKNAAIAVLTEL [E65T],-0.082 ± 0.044
12,KSEISQVFEIALKRNLPVNFEVARESGPPHMKNFVTKVSVGEFVGEGEGKSKKISKKNAAIAVLFEL [E65F],-0.737 ± 0.17
13,KSEISQVFEIALKRNLPVNFEVARESGPPHMKNFVTKVSVGEFVGEGEGKSKKISKKNAAIAVLVEL [E65V],-0.584 ± 0.045
14,KSEISQVFEIALKRNLPVNFEVARESGPPHMKNFVTKVSVGEFVGEGEGKSKKISKKNAAIAVLPEL [E65P],-0.386 ± 0.054
15,KSEISQVFEIALKRNLPVNFEVARESGPPHMKNFVTKVSVGEFVGEGEGKSKKISKKNAAIAVLREL [E65R],0.093 ± 0.036
16,KSEISQVFEIALKRNLPVNFEVARESGPPHMKNFVTKVSVGEFVGEGEGKSKKISKKNAAIAVLKEL [E65K],0.118 ± 0.055
17,KSEISQVFEIALKRNLPVNFEVARESGPPHMKNFVTKVSVGEFVGEGEGKSKKISKKNAAIAVLIEL [E65I],-0.573 ± 0.14
18,KSEISQVFEIALKRNLPVNFEVARESGPPHMKNFVTKVSVGEFVGEGEGKSKKISKKNAAIAVLLEL [E65L],-0.417 ± 0.044
19,KSEISQVFEIALKRNLPVNFEVARESGPPHMKNFVTKVSVGEFVGEGEGKSKKISKKNAAIAVLEEM [L67M],0 ± 0.058
20,KSEISQVFEIALKRNLPVNFEVARESGPPHMKNFVTKVSVGEFVGEGEGKSKKISKKNAAIAVLEEK [L67K],-0.53 ± 0.08

row,Variant,abundance fitness
1,KSEISQVFEIALKRNLPVNFEVARESGPPHMKNFVTKVSVGEFVGEGEGKSKKISKKNAAIAVLEEW [L67W],-0.465 ± 0.093
2,KSEISQVFEIALKRNLPVNFEVARESGPPHMKNFVTKVSVGEFVGEGEGKSKKISKKNAAIAVLEET [L67T],-0.6 ± 0.077
3,KSEISQVFEIALKRNLPVNFEVARESGPPHMKNFVTKVSVGEFVGEGEGKSKKISKKNAAIAVLEEA [L67A],-0.509 ± 0.083
4,KSEISQVFEIALKRNLPVNFEVARESGPPHMKNFVTKVSVGEFVGEGEGKSKKISKKNAAIAVLEEG [L67G],-0.438 ± 0.066
5,KSEISQVFEIALKRNLPVNFEVARESGPPHMKNFVTKVSVGEFVGEGEGKSKKISKKNAAIAVLEEQ [L67Q],-0.423 ± 0.076
6,KSEISQVFEIALKRNLPVNFEVARESGPPHMKNFVTKVSVGEFVGEGEGKSKKISKKNAAIAVLEER [L67R],-0.751 ± 0.074
7,KSEISQVFEIALKRNLPVNFEVARESGPPHMKNFVTKVSVGEFVGEGEGKSKKISKKNAAIAVLEEN [L67N],-0.584 ± 0.18
8,KSEISQVFEIALKRNLPVNFEVARESGPPHMKNFVTKVSVGEFVGEGEGKSKKISKKNAAIAVLEES [L67S],-0.603 ± 0.067
9,KSEISQVFEIALKRNLPVNFEVARESGPPHMKNFVTKVSVGEFVGEGEGKSKKISKKNAAIAVLEEP [L67P],-0.526 ± 0.094
10,KSEISQVFEIALKRNLPVNFEVARESGPPHMKNFVTKVSVGEFVGEGEGKSKKISKKNAAIAVLEEH [L67H],-0.299 ± 0.25
11,KSEISQVFEIALKRNLPVNFEVARESGPPHMKNFVTKVSVGEFVGEGEGKSKKISKKNAAIAVLEEI [L67I],-0.114 ± 0.14
12,KSEISQVFEIALKRNLPVNFEVARESGPPHMKNFVTKVSVGEFVGEGEGKSKKISKKNAAIAVLEEV [L67V],-0.439 ± 0.076
13,KSEISQVFEIALKRNLPVNFEVARESGPPHMKNFVTKVSVGEFVGEGEGKSKKISKKNAAIAVLEEF [L67F],-0.355 ± 0.11
14,KSEISQVFEIALKRNLPVNFEVARESGPPHMKNFVTKVSVGEFVGEGEGKSKKISKKNAAIAVLEEC [L67C],-0.693 ± 0.13
15,KSEISQVFEIALKRNLPVNFEVARESGPPHMKNFVTKVSVGEFVGEGEGKSKKISKKNAAIAVLEEY [L67Y],-0.873 ± 0.24
16,KSEISQVFEIALKRNLPVNFEVARESGPPHMKNFVTKVSVGEFVGEGEGKSKKISKKNAAIAVLEEE [L67E],-0.743 ± 0.11
17,KSEISQVFEIALKRNLPVNFEVARESGPPHMKNFVTKVSVGEFVGEGEGKSKKISKKNAAIAVLEED [L67D],-0.706 ± 0.35
18,KSEISQVFEIALKRNLPVNFEVARESGPPHMKNFVTKVSVGEFVGEGEGKSKKISKKNAAIASLEEL [V63S],-0.693 ± 0.053
19,KSEISQVFEIALKRNLPVNFEVARESGPPHMKNFVTKVSVGEFVGEGEGKSKKISKKNAAIAYLEEL [V63Y],-0.906 ± 0.12
20,KSEISQVFEIALKRNLPVNFEVARESGPPHMKNFVTKVSVGEFVGEGEGKSKKISKKNAAIATLEEL [V63T],-0.615 ± 0.056
